Assay results from article PMC11082957.

Assays:
α-synuclein (α-syn) [1] = target: α-synuclein (α-syn) (UniProt P37840); test: ThT fluorescence of ONE-induced self-aggregation; details: reference: α-syn not treated with PLK3; sites S129
α-synuclein (α-syn) [2] = target: α-synuclein (α-syn) (UniProt P37840); test: ThT fluorescence of agitation-induced self-aggregation; details: reference: α-syn not treated with PLK3; sites S129

fold change (α-synuclein (α-syn) [1]): stronger; reference 1
fold change (α-synuclein (α-syn) [2]): stronger; reference 1
Substance: α-synuclein (α-syn) (from UniProt P37840) PLK3-phosphorylated α-syn (p-α-syn)
